Laboratory results: USRE39849 (CHEMOCENTRYX, dated 2007)

Tests used:
[1] = target: T1, human CCX CKR with N-terminal Flag epitope, stably expressed on HEK293 cells (human, UniProt Q9NPB9 1-350); assay: displacement of 125I-ELC (or 125I-TECK) from CCX CKR stable transfectants, cold chemokine at 200 nM
T1 construct: also called HEK293-CCX CKR cells
T1 sequence: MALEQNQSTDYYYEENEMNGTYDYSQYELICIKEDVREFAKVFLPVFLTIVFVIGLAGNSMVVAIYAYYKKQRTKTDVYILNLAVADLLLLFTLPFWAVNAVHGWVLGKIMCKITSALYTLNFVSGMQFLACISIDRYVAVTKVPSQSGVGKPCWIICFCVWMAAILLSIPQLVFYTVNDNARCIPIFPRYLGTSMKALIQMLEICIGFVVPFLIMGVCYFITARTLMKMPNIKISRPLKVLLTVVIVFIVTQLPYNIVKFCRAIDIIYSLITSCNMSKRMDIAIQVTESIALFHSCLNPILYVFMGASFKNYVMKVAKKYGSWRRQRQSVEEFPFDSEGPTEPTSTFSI

[2] = target: T1, human CCX CKR with N-terminal Flag …; assay: radioligand binding competition on CCX CKR stable transfectants
[3] = target: T1, human CCX CKR with N-terminal Flag …; assay: radioligand binding competition on CCX CKR stable transfectants (similar experiments, not shown)

B1: murine TECK (ligand, UniProt O35903 24-144, looked up)
chain: QGAFEDCCLGYQHRIKWNVLRHARNYHQQEVSGSCNLRAVRFYFRQKVVCGNPEDMNVKRAMRILTARKRLVHWKSASDSQTERKKSNHMKSKVENPNSTSVRSATLGHPRMVMMPRKTNN
notes: also called murine version of TECK
binding result [1]: binds

B2: human TECK (thymus expressed chemokine) (ligand, UniProt O15444 24-150, looked up)
chain: QGVFEDCCLAYHYPIGWAVLRRAWTYRIQEVSGSCNLPAAIFYLPKRHRKVCGNPKSREVQRAMKLLDARNKVFAKLHHNTQTFQAGPHAVKKLSSGNSKLSSSKFSNPISSSKRNVSLLISANSGL
notes: also called soluble TECK; cold TECK
binding result [1]: binds

B3: murine ELC (ligand, UniProt O70460 26-108, looked up)
chain: GANDAEDCCLSVTQRPIPGNIVKAFRYLLNEDGCRVPAVVFTTLRGYQLCAPPDQPWVDRIIRRLKKSSAKNKGNSTRRSPVS
notes: also called murine version of ELC
binding result [2]: binds

B4: mMIP-1 gamma (murine macrophage inflammatory protein-1 gamma) (ligand, UniProt P51670 22-122, looked up)
chain: QITHATETKEVQSSLKAQQGLEIEMFHMGFQDSSDCCLSYNSRIQCSRFIGYFPTSGGCTRPGIIFISKRGFQVCANPSDRRVQRCIERLEQNSQPRTYKQ
notes: also called mMIP-1γ; CCF18
binding result [1]: binds

B5: murine CTACK (ligand, UniProt Q9Z1X0 26-120, looked up)
chain: LPLPSSTSCCTQLYRQPLPSRLLRRIVHMELQEADGDCHLQAVVLHLARRSVCVHPQNRSLARWLERQGKRLQGTVPSLNLVLQKKMYSHPQQQN
notes: also called mCTACK; CCL27
Kd [3]: ~9 nM

B6: human SLC (secondary lymphoid-tissue chemokine) (ligand, UniProt O00585 24-134, looked up)
chain: SDGGAQDCCLKYSQRKIPAKVVRSYRKQEPSLGCSIPAILFLPRKRSQAELCADPKELWVQQLMQHLDKTPSPQKPAQGCRKDRGASKTGKKGKGSKGCKRTERSQTPKGP
notes: also called 6Ckine; soluble SLC
binding result [1]: binds

B7: human ELC (EBI1 ligand chemokine) (ligand, UniProt Q99731 22-98, looked up)
chain: GTNDAEDCCLSVTQKPIPGYIVRNFHYLLIKDGCRVPAVVFTTLRGRQLCAPPDQPWVERIIQRLQRTSAKMKRRSS
notes: also called MIP-3beta; MIP3beta
binding result [2]: binds
